Test system: Escherichia coli TOP10
Assay: shrunken log2 fold change of peptide-encoding DNA abundance (4.5 h post-induction vs induction); higher = less antimicrobial activity (less host growth inhibition)
Settings: time post-induction: 4.5 h; library: site-saturation at positions 5, 18, 19, 20
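Further: peptides expressed intracellularly from a pBAD plasmid library in pooled LB shake-flask culture, induced with 0.3% L-arabinose, DNA abundance read by NGS, three biological replicates, DESeq2 with apeglm shrinkage.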

Sequence	shrunken log2 fold change
RRIRNRPPRLPRPRPRPEGNPRP	-0.0214
RRIRPRPPRLPRPRPRPDMEPRP	-0.0437
RRIRYRPPRLPRPRPRPITEPRP	-0.101
RRIRIRPPRLPRPRPRPADWPRP	0.218
RRIRRRPPRLPRPRPRPRQYPRP	-0.191
RRIRMRPPRLPRPRPRPNRNPRP	-0.292
RRIRYRPPRLPRPRPRPPCGPRP	-0.406
RRIRTRPPRLPRPRPRPGYPPRP	-0.197
RRIRARPPRLPRPRPRPPITPRP	0.261
RRIRPRPPRLPRPRPRPLRWPRP	0.588
RRIRCRPPRLPRPRPRPRKRPRP	0.456
RRIRCRPPRLPRPRPRPDCHPRP	-0.0697
RRIRWRPPRLPRPRPRPYSRPRP	-0.0788
RRIRYRPPRLPRPRPRPSWDPRP	-0.429
RRIRTRPPRLPRPRPRPVEEPRP	-0.08
RRIRGRPPRLPRPRPRPREGPRP	1.42
RRIRLRPPRLPRPRPRPINYPRP	-0.857
RRIRVRPPRLPRPRPRPNNWPRP	-0.183
RRIRERPPRLPRPRPRPHMMPRP	-1.14
RRIRPRPPRLPRPRPRPPPVPRP	0.744
RRIRSRPPRLPRPRPRPKLFPRP	0.172
RRIRCRPPRLPRPRPRPVQWPRP	0.116

Sequence	shrunken log2 fold change
RRIRQRPPRLPRPRPRPGMSPRP	0.285
RRIRERPPRLPRPRPRPMSDPRP	-0.235
RRIRDRPPRLPRPRPRPVDQPRP	-0.131
RRIRTRPPRLPRPRPRPVIVPRP	-0.314
RRIRSRPPRLPRPRPRPEFHPRP	-0.162
RRIRIRPPRLPRPRPRPAFDPRP	-0.295
RRIRSRPPRLPRPRPRPCDVPRP	-0.0124
RRIRIRPPRLPRPRPRPDRIPRP	0.0297
RRIRWRPPRLPRPRPRPISNPRP	-0.0292
RRIRWRPPRLPRPRPRPQIFPRP	-0.053
RRIRQRPPRLPRPRPRPCFEPRP	0.0423
RRIRQRPPRLPRPRPRPNWQPRP	-0.0119
RRIRIRPPRLPRPRPRPHCTPRP	-0.0502
RRIRQRPPRLPRPRPRPFMKPRP	-0.0158
RRIRPRPPRLPRPRPRPPNVPRP	-0.0451
RRIRTRPPRLPRPRPRPSTAPRP	0.181
RRIRPRPPRLPRPRPRPYHLPRP	-1.07
RRIRMRPPRLPRPRPRPVPSPRP	0.588
RRIRRRPPRLPRPRPRPWLCPRP	0.102
RRIRGRPPRLPRPRPRPPMAPRP	0.94
RRIRYRPPRLPRPRPRPLPVPRP	-0.142
RRIRMRPPRLPRPRPRPKKGPRP	0.364

Sequence	shrunken log2 fold change
RRIRCRPPRLPRPRPRPSPWPRP	0.0328
RRIRKRPPRLPRPRPRPAQPPRP	0.764
RRIRSRPPRLPRPRPRPDTCPRP	-0.225
RRIRVRPPRLPRPRPRPTNSPRP	-0.436
RRIRSRPPRLPRPRPRPKCRPRP	0.0128
RRIRNRPPRLPRPRPRPFAYPRP	0.0803
RRIRSRPPRLPRPRPRPESAPRP	0.278
RRIRFRPPRLPRPRPRPVEIPRP	-0.391
RRIRTRPPRLPRPRPRPNMEPRP	0.343
RRIRHRPPRLPRPRPRPKIYPRP	-0.296
RRIRRRPPRLPRPRPRPWIDPRP	-0.0585
RRIRVRPPRLPRPRPRPWWMPRP	-0.26
RRIRCRPPRLPRPRPRPPVFPRP	0.0601
RRIRSRPPRLPRPRPRPCSTPRP	0.129
RRIRYRPPRLPRPRPRPSGWPRP	-0.00312
RRIRIRPPRLPRPRPRPLFRPRP	-0.429
RRIRTRPPRLPRPRPRPNRWPRP	-0.0997
RRIRTRPPRLPRPRPRPTKGPRP	-0.183
RRIRKRPPRLPRPRPRPDFYPRP	-0.0302
RRIRQRPPRLPRPRPRPQVRPRP	-0.276
RRIRSRPPRLPRPRPRPADFPRP	-0.0669
RRIRGRPPRLPRPRPRPNFIPRP	-0.00471

Sequence	shrunken log2 fold change
RRIRNRPPRLPRPRPRPMGCPRP	-0.187
RRIRERPPRLPRPRPRPFMNPRP	-0.00101
RRIRQRPPRLPRPRPRPSDRPRP	-0.264
RRIRQRPPRLPRPRPRPGYEPRP	0.00854
RRIRFRPPRLPRPRPRPCHVPRP	0.0269
RRIRFRPPRLPRPRPRPKTHPRP	-0.0208
RRIRSRPPRLPRPRPRPCHSPRP	0.00316
RRIRPRPPRLPRPRPRPTSHPRP	-0.235
RRIRLRPPRLPRPRPRPQIRPRP	-0.0176
RRIRWRPPRLPRPRPRPWYIPRP	-0.172
RRIRSRPPRLPRPRPRPNIRPRP	0.0389
RRIRFRPPRLPRPRPRPMNEPRP	-0.595
RRIRYRPPRLPRPRPRPTLVPRP	-0.0641
RRIRSRPPRLPRPRPRPPQTPRP	0.365
RRIRKRPPRLPRPRPRPVGPPRP	0.441
RRIRHRPPRLPRPRPRPQLTPRP	-0.261
RRIRGRPPRLPRPRPRPIVCPRP	0.356
RRIRSRPPRLPRPRPRPAEIPRP	-0.136
RRIRFRPPRLPRPRPRPWCGPRP	-0.142
RRIRLRPPRLPRPRPRPQQDPRP	-0.29
RRIRQRPPRLPRPRPRPLVEPRP	-0.0628
RRIRRRPPRLPRPRPRPQQPPRP	0.325

Sequence	shrunken log2 fold change
RRIRPRPPRLPRPRPRPYVAPRP	-0.465
RRIRERPPRLPRPRPRPLIHPRP	-0.522
RRIRWRPPRLPRPRPRPVMFPRP	-0.0114
RRIRGRPPRLPRPRPRPIGRPRP	0.551
RRIRFRPPRLPRPRPRPHLLPRP	-0.428
RRIRRRPPRLPRPRPRPTRQPRP	1.33
RRIRARPPRLPRPRPRPKEAPRP	0.516
RRIRNRPPRLPRPRPRPEEEPRP	-0.00134
RRIRERPPRLPRPRPRPGVFPRP	0.248
RRIRNRPPRLPRPRPRPVFRPRP	-0.165
RRIRERPPRLPRPRPRPDWNPRP	-0.631
RRIRPRPPRLPRPRPRPDEPPRP	0.0641
RRIRCRPPRLPRPRPRPGGFPRP	0.146
RRIRPRPPRLPRPRPRPPYTPRP	-0.232
RRIRIRPPRLPRPRPRPVEFPRP	-0.0453
RRIRTRPPRLPRPRPRPVPQPRP	0.00694
RRIRNRPPRLPRPRPRPNSQPRP	-0.265
RRIRFRPPRLPRPRPRPTDAPRP	0.00734
RRIRRRPPRLPRPRPRPGFVPRP	0.423
RRIRGRPPRLPRPRPRPRHWPRP	0.439
RRIRVRPPRLPRPRPRPTIKPRP	-0.226
